Assays:
[1] = biological target: sp1_human SP1 (UniProt P08047)
[2] = biological target: pdk1_human PDK1 (UniProt Q15118)
pdk1_human PDK1, sequence (Q15118 whole entry, looked up): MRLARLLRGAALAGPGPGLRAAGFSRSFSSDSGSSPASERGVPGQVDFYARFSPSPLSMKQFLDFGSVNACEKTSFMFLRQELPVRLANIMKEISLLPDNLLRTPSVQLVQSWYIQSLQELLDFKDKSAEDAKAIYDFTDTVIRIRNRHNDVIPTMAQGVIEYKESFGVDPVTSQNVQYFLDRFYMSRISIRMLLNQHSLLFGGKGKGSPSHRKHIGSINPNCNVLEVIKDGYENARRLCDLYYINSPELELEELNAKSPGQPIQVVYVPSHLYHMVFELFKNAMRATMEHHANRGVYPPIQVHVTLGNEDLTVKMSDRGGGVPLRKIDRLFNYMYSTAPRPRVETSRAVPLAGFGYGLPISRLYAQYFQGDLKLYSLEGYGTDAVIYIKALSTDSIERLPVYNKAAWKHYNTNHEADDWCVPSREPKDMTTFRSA

Endothelial PAS domain-containing protein 1 (Homo sapiens), Q99814 P329T, sequence (Q99814 whole entry P329T, the tested form may be a part): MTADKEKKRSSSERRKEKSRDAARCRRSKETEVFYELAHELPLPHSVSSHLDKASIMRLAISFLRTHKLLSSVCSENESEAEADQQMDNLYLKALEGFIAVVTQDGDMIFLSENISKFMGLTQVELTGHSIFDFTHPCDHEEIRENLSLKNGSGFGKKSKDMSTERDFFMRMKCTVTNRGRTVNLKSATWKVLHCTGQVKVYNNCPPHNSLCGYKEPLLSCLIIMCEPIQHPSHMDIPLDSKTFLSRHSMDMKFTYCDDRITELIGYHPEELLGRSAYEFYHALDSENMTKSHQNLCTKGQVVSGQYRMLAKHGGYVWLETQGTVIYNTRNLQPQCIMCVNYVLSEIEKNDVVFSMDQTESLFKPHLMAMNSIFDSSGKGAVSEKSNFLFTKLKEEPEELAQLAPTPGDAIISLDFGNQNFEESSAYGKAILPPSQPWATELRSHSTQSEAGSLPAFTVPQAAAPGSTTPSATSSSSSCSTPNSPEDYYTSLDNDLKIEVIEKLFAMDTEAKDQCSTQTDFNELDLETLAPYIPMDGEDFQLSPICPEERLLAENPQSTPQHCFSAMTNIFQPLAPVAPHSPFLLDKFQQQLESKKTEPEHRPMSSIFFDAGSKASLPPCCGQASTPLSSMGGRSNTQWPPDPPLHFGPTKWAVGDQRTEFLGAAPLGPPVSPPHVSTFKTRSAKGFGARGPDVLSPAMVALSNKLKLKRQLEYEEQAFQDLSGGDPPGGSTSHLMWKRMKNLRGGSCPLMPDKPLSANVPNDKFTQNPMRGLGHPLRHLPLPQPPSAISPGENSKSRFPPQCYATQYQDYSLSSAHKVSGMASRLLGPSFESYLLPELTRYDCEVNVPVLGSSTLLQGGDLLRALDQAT
sp1_human SP1, sequence (P08047 whole entry): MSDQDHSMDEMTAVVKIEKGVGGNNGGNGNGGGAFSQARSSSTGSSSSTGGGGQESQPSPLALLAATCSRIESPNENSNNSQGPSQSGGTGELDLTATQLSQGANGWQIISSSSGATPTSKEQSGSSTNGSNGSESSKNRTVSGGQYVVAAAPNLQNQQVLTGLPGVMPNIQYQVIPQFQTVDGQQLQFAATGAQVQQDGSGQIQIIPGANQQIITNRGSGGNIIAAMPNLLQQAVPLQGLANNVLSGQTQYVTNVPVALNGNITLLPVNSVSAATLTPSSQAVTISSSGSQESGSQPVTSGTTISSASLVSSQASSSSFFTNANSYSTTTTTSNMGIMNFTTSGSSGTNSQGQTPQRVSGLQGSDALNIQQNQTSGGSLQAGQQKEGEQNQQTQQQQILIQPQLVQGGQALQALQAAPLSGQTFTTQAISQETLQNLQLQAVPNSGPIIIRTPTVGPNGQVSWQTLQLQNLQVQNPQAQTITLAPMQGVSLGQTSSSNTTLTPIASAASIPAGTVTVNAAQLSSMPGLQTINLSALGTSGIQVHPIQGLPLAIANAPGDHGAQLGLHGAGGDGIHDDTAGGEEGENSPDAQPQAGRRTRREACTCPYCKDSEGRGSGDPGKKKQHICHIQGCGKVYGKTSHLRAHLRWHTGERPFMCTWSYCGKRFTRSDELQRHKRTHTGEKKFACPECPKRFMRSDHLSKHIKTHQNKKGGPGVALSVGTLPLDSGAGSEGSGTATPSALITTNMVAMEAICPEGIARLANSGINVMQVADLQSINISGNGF
Endothelial PAS domain-containing protein 1 (Homo sapiens), Q99814 T324V, sequence (Q99814 whole entry T324V, the tested form may be a part): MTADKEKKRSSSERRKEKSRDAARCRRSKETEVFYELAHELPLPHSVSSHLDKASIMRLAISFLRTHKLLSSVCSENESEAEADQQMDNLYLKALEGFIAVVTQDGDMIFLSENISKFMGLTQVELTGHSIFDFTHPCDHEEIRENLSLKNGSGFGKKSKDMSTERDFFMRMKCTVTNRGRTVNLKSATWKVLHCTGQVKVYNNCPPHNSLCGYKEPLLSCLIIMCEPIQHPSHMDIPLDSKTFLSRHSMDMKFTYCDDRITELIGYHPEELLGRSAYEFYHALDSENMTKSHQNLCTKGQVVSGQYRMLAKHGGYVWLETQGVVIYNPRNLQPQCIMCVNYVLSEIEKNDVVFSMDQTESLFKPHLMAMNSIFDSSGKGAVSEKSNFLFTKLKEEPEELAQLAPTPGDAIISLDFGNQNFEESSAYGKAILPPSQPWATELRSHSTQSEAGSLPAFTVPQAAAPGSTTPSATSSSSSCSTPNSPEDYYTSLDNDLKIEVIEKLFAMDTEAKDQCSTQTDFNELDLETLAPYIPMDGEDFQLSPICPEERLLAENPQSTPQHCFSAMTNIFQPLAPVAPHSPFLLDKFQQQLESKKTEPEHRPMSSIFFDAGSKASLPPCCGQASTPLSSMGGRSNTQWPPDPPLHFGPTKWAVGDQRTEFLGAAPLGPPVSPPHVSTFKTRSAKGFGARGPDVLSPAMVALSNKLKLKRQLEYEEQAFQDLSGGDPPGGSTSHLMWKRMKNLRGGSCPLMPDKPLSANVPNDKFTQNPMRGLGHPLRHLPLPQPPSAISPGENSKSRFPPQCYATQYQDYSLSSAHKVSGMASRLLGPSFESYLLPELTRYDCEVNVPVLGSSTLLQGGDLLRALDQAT

effect of a mutation on the interaction [1]	effect of a mutation on the interaction [2]	Substance
increasing interaction		Endothelial PAS domain-containing protein 1 (Homo sapiens), Q99814 P329T
	disrupting interaction	Endothelial PAS domain-containing protein 1 (Homo sapiens), Q99814 T324V

From IntAct's records for PubMed 17024177
